Numbering of substitutions follows the chain as printed.

Assay [1] deals with T1, Rhesus D antigen (human, UniProt Q02161 2-417).
T1 construct: whole, on cells; R1R1 cells also carry C and e; also called RhD; on rbc R1R1 (CDe/CDe, CCDDee)
T1 sequence (looked up): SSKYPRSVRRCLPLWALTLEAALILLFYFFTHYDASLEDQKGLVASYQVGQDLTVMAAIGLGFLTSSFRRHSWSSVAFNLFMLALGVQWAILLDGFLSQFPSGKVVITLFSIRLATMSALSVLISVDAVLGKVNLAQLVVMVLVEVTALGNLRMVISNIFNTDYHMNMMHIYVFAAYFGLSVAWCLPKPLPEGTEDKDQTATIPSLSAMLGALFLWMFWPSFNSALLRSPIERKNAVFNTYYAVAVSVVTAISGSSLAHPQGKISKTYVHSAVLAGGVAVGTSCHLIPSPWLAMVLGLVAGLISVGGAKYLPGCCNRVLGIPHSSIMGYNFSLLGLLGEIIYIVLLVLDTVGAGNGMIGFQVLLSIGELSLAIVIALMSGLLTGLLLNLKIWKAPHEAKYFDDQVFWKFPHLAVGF
The experiment in a line: haemagglutination, rbc.

The target of assay [2] is T2, Rhesus negative rbc, phenotype ccddee (Rhesus c and e antigens, no D) (human, UniProt P18577 2-417).
T2 construct: whole, on cells; the thing tested is the whole red cell; also called rr
T2 sequence (looked up): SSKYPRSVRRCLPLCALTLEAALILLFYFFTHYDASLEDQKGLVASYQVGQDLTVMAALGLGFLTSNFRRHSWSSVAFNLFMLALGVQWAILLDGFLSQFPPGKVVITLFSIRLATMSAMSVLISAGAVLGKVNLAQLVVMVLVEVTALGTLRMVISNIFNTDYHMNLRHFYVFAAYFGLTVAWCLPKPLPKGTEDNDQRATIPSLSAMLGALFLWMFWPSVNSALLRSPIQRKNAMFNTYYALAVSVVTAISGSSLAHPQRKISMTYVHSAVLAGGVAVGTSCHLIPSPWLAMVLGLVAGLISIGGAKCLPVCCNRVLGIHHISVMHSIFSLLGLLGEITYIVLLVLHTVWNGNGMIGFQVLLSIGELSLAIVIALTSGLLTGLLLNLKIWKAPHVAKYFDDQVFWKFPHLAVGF
The experiment in a line: indirect haemagglutination, Fab fragment, rbc rr.

Assay [3] has as its target T1, Rhesus D antigen. The experiment in a line: indirect haemagglutination, Fab fragment, rbc R1R1.
Assay [4] has as its target T1, Rhesus D antigen. The experiment in a line: indirect haemagglutination, rbc CCDDee.
Assay [5] addresses T2, Rhesus negative rbc, phenotype ccddee …. The experiment in a line: indirect haemagglutination, rbc ccddee.

B1: Fab clone LD1-117 (Fab, V domains shown)
VH: QVKLLESGGGVVQPGKSLRLSCAASGFSFNSHGMHWVRQAPGKGLEWVAFIWFDGSNKYYADSVKGRFTITRDNSKNTLYLQMNSLRAEDTAVYYCARETSVRLGYSRYNYYMDVWGKGTTVTISS
VL: VMTQSPSSLSASVGDRVTITCRASQSIRSHLNWYQQKPGKAPKLLIYAASSLQGGVPSRFSGSGSGTDFTLTISSLQPEDFATYYCQQSYRAPQWTFGQGTKVEIK
notes: human soluble Fab from pComb3 in E. coli
On to B1, for which, in the assay with Rhesus D antigen [1], the binding result was “binds”.

B2: Fab clone LD2-14 (Fab, V domains shown)
VH: QVKLLESGGGVVQPGGSLRVACVASGFTFRNFGMHWVRQAPGKGLEWVAFIWFDASNKGYGDSVKGRFTVSRDNSKNTLYLQMNGLRAEDTAVYYCAREKAVRGISRYNYYMDVWGKGTTVTVSS
VL: VMTQSPSSLSASVGDRVTITCRASQSIINNLNWYQQKPGKAPELLIYAASSLQSGVPSRFRGSGSGRDFTLTVTSLQPEDFATYYCQQSYSTLWTFGQGTKVEIK
notes: as for B1
As for B2, the binding result in assay [2] is listed as “no binding”; with Rhesus D antigen [3], “binds”.

B3: Fab clone LD1/2-6-3 (Fab, V domains shown)
VH: B2 VH
VL: VMTQSPSSLSASVGDRVTITCRASQSIIRYLNWYQHKPGKAPKLLIHTASSLQSGVPSRFSGSVSGTDFTLTISSLQPEDFATYYCQQSYTTPYTFGQGTKLQIK
On to B3, for which the binding result with Rhesus D antigen [4] is listed as “binds”; in assay [5], “no binding”.

B4: Fab clone LD1/2-6-33 (Fab, V domains shown)
VH: B2 VH
VL: B3 VL with S8F, T48A
Consider B4, for which the binding result is reported as “binds” in the assay with Rhesus D antigen [4] and “no binding” in assay [5].

B5: Fab clone LD2-17 (Fab, V domains shown)
VH: QVKLLESGGGVVQPGGSLRLSCVASGFTFRSYGMHWVRQAPGKGLEWVAFIWFDGSNKGYVDSVKGRFTISRDNSKNTLYLQMKSLRAEDTAVYYCAREKALRGISRYNYYLDVWGKGTTVTVSS
VL: VMTQSPFSLSASVGDRVTITCRASQNIRSFLSWYQQKPGTAPKLLIYAASRLQSGVPSRFSGSGSGTDFTLTISTLQPEDFATYYCQQSYSAPWTFGQGTKLEIK
notes: as for B1
For the molecule B5, the binding result with Rhesus D antigen [1] is reported as “binds”.

B6: Fab clone LD2-20 (Fab, V domains shown)
VH: B5 VH with F29S
VL: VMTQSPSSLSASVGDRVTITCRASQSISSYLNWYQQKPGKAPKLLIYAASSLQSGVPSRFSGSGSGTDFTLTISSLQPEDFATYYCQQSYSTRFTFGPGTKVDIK
notes: as for B1
Consider B6, for which, in the assay with Rhesus D antigen [1], the binding result was “binds”.

B7: Fab clone LD2-5 (Fab, V domains shown)
VH: B5 VH with V11L, T78M, K84N, T119A
VL: VMTQSPSSLSASIGDRVTITCRASQSVTRSLNWYQQKPGKAPRLLIFAASTLQSGVPSRFSGSGSGTDFTLTISSLQPEDFGTYYCQQNYRTPQWTFGQGTKVEIK
notes: as for B1
Take B7: the binding result with Rhesus D antigen [1] was “binds”.

B8: Fab clone LD2-11 (Fab, V domains shown)
VH: QVKLLESGGGVVQPGGSLRLSCEASGFTLRSSGMHWVRQAPGKGLEWVALIWFDGSIRSYAESVKGRFTISRDTSKNTLYLQMRSLSADDTAVYYCARDKAVRGISRYNYYMDVWGKGTTVTVSS
VL: VLTQSPSSLSASIRDRVTITCRASQNIGSYLNWYQHKPGTAPKLLIYAVSALQSGVPSRFSGSRSGTDFTLTISSLQPEDFATYYCQQSYSPPYTFGQGTNLQIK
notes: as for B1
For B8, the binding result in the assay with Rhesus D antigen [1] is “binds”.

B9: Fab clone LD2-4 (Fab, V domains shown)
VH: B8 VH
VL: VMTQSPSSLSASVGDRVTITCRTSQTISRNLNWYQQKPGKAPKLLIYATSSLQSGVPSRFSGSGSGTDFTLTINSLQPEDFATYYCQQSYTTPSFGQGTKVEIK
notes: as for B1
Turning to B9, the binding result with Rhesus D antigen [1] is reported as “binds”.

B10: Fab clone LD1-84 (Fab, V domains shown)
VH: B8 VH
VL: VMTQSPSSLSASIGDRVTITCRASQSIIRYLNWYQHKPGKAPKLLIFAASNLQTGVPSRFSGSGSGTDFTLTISDLQPEDFATYYCQQSYSRPFTFGRGTSLDIK
notes: as for B1
With B10, the binding result in the assay with Rhesus D antigen [1] is “binds”.

B11: Fab clone LD1-52 (Fab, V domains shown)
VH: B8 VH with T28A
VL: VMTQSPSSLSASVGDRVTITCRASQNIIRYLNWYQQKPGKAPRLLIYGASTLQSGVPSRFSGSGSGTDFTLTISSLQPEDFATYYCQQSYRTPPFTFGPGTKVEIK
notes: as for B1
With B11, in the assay with Rhesus D antigen [1], the binding result is “binds”.

B12: Fab clone LD1-40 (Fab, V domains shown)
VH: QVKLLESGGGVVQPGRSLRLSCIASGFTLRNYAMHWVRQAPGKGLEWVAGIWFDGSNKNYADSVKGRFTISRDNSKNTLYLQLNSLRDEDTAVYYCARERAARGISRFYYYMDVWGKGTTVTVSP
VL: VMTQSPSSLSASVGDRVTITCRASQSIRSHLNWYQQKPGKAPKLLIYGASTLQSGVPSRFSGSGSGAVFTLTIASLQPEDFATYYCQESYSNPLITFGQGTRLETK
notes: as for B1
As for B12, in the assay with Rhesus D antigen [1], the binding result is given as “binds”.

B13: Fab clone LD1-110 (Fab, V domains shown)
VH: B12 VH with Y80F, Q82H, L83M, D88A, V93T, A102I, F108Y, Y109N, P125S
VL: VMTQSPSSLSASVGDRVTITCRASQSIRSSLNWYQQKPGKAPKVLIYAASSLQSGVPSRFSGRGSGTDFTLTISSLQPEDFATYYCQQSSSSSWTFGQGTKVEIK
notes: as for B1
As for B13, the binding result with Rhesus D antigen [1] is on record as “binds”.

Source of the values: patent US7038020 (ZLB BIOPLASMA, dated 2006).
